{"source": "patent US6726924B2", "about": "“Oral liposomal delivery system” (Biozone Laboratories, Inc., priority 1997, dated 2004)", "origin": "cited, not measured here", "details": "oral; free vs liposomes with ceramides; Regnault et al. 1996"}
{"substance": "superoxide dismutase", "values": [{"measurement": "bioavailability", "result": 14, "unit": "%"}]}
